This test addresses T1, APS1 (small subunit of ADP-glucose pyrophosphorylase, AGPase; AT5G48300), endogenous in Arabidopsis plants (Arabidopsis thaliana, UniProt P55228 72-520, limits assumed).
T1 construct: Endogenous plant protein
T1 sequence (looked up): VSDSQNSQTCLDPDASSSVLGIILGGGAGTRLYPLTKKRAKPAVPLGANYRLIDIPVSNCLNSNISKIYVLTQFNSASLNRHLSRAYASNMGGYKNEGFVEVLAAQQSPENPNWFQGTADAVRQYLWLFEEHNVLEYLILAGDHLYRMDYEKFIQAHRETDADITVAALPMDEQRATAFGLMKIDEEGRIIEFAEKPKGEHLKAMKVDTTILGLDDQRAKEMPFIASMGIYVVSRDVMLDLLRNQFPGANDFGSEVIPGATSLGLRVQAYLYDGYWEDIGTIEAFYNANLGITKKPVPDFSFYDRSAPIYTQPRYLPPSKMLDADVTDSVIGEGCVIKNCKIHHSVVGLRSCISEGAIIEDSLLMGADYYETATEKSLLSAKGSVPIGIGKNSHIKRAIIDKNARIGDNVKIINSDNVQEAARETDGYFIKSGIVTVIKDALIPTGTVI
The test can be described thus: in planta trapping of intermolecular disulfide reaction intermediates; non-reducing SDS-PAGE, anti-HA immunoblot. For orientation: Immunoblotting shows a protein as a band on a membrane.

B1: ACHT4ΔC (Arabidopsis ACHT4 lacking the 47-amino acid C-terminus), fused to the HA3 affinity tag (enzyme, not shown: small tags and cut ends)
chain: SSAITAQTTLRIGTAQKWWEKGLKDNMREISSAQELVDSLTNAGDKLVVVDFFSPGCGGCKALHPKICQFAEMNPDVQFLQVNYEEHKSMCYSLGVHVLPFFRFYRGSQGRVCSFSCTNATIKKFRDALAKHGPDRCSLGPTKGLEEKELVALAAN
notes: also called AtACHT4ΔC; AtACHT4-C-Del
As to B1, the binding result is “no binding”.

These data come from patent US20190119696A1 (YEDA RESEARCH AND DEVELOPMENT, published 2019).
